# Data reported in patent US20160208233A1 (Harvard, published 2016).
# T1: Abz-LPETGK(Dnp)-CONH2
# T1 chain: LPETGK
# T2: Abz-LAETGK(Dnp)-CONH2
# T2 chain: LAETGK
# T3: Gly-Gly-Gly-COOH
# T3 chain: GGG
# T4: Abz-LPESGK(Dnp)-CONH2
# T4 chain: LPESGK
# B1: eSrtA(2A-9) H104A (protein)
# chain: QAKPQIPKDKSKVAGYIEIPDADIKEPVYPGPATREQLNRGVCFADENESLDDQNISIAGHTFIDRPNYQFTNLKAAKPGSMVYFKVGNETRIYKMTSIRKVHPNAVEVLDEQEGKDKQLTLVTCDDYNEETGVWESRKIFVATEVK
# B2: eSrtA(2A-9) V182I (protein)
# chain: QAKPQIPKDKSKVAGYIEIPDADIKEPVYPGPATREQLNRGVCFHDENESLDDQNISIAGHTFIDRPNYQFTNLKAAKPGSMVYFKVGNETRIYKMTSIRKVHPNAVEVLDEQEGKDKQLTLITCDDYNEETGVWESRKIFVATEVK
# B3: wild-type S. aureus sortase A (protein)
# chain: QAKPQIPKDKSKVAGYIEIPDADIKEPVYPGPATPEQLNRGVSFAEENESLDDQNISIAGHTFIDRPNYQFTNLKAAKKGSMVYFKVGNETRKYKMTSIRDVKPTDVEVLDEQKGKDKQLTLITCDDYNEKTGVWEKRKIFVATEVK
# B4: eSrtA(2A-6) (protein)
# chain: QAKPQIPKDKSKVAGYIEIPDADIKEPVYPGPATREQLNRGVSFHEENESLDDQNISIAGHTFIDRPNYQFTNLKAAKVGSMVYFKVGNETRKYKMTSIRNVRPTAVEVLDEQKGKDKQLTLVTCDDYNEETGVWETRKIFVATEVK
# B5: eSrtA(2A-4) (protein)
# chain: QAKPQIPKDKSKVAGYIEIPDADIKEPVYPGPATREQLNRGVSFHEENESLDDQNISIAGHTFIDRPNYQFTNLKAAKKGSMVYFKVGNETRKYKMTSIRNVRPTAVEILDEQKGKDKQLTLVTCDDYNEETGVWETRKIFVATEVK
# B6: eSrtA(2A-5) (protein)
# chain: QAKPQIPKDKSKVAGYIEIPDADIKEPVYPGPATREQLNHGVSFHEENESLDDQNISIAGHTFIDRPNYQFTNLKAAKIGSMVYFKVGNETRKYKMTSIRNVRPTAVEVLDEQKGKDKQLTLVTCDDYNEETGVWETRKIFVATEVK
# B7: 2A.6B (protein)
# chain: QAKPQIPKDKSKVAGYIEIPDADIKEPVYPGPATREQLNKGVSFHEENESLDDQNISIAGHTFIDRPNYQFTNLKAAKVGSMVYFKVGNETRKYKMTSIRKVRPTAVEVLDEQKGKDKQLTLVTCDDYNEETGVWETRKIFVATEVK
# B8: eSrtA(4S-4) (protein)
# chain: QAKPQIPKDKSKVAGYIEIPDADIKEPVYPGPATREQLNRGVSFVEENESLDDQNISITGHTSIDRPNYQFTNLKAAKKGSMVYFKVGNETRKYKMTSIRNVKPTAVEVLDEQKGKDKQLTLVTCDDYNEETGVWETRKIFVATEVK
# B9: eSrtA(4S-3.5) (protein)
# chain: QAKPQIPKDKSKVAGYIEIPDADIKEPVYPGPATREQLNRGVSFTEENESLDDQNISITGHTFIDRPNYQFTNLKAAKKGSMVYFKVGNETRKYKMTSIRNVKPTAVEVLDEQKGKDKQLTLVTCDDYNEETGVWETRKIFVATEVK
# B10: eSrtA(4S-5) (protein)
# chain: QAKPQIPKDKSKVAGYIEIPDADIKEPVYPGPATREQLDRGVSFVEENESLDDQNISITGHTAIDRPNYQFTNLRAAKKGSMVYFKVGNETRKYKMTSIRNVKPTAVEVLDEQKGKDKQLTLVTCDDYNEETGVWETRKIFVATEVK
# B11: eSrtA(4S-6) (protein)
# chain: QAKPQIPKDKSKVAGYIEIPDADIKEPVYPGPATREQLDRGVSFVEENESLDDQNISISGHTAIDRPNYQFTNLGAAKKGSMVYFKVGNETRKYKMTSIRNVKPTAVEVLDEQKGKDKQLTLVTCDDYNVETGVWETRKIFVATEVK
# B12: eSrtA(4S-9) V182I (protein)
# chain: QAKPQIPKDKSKVAGYIEIPDADIKEPVYPGPATREQLDRGVCFVEENESLDDQNISITGHTAIDRPNYQFTNLRAAKKGSMVYLKVGNETRKYKMTSIRNVKPTAVEVLDEQKGKDKQLTLITCDDYNFETGVWETRKIFVATEVK
# B13: 4S.6C (protein)
# chain: QAKPQIPKDKSKVAGYIEIPDADIKEPVYPGPATREQLDRGVSFVEENESLDDQNISITGHTAIDRPNYQFTNLRAAKKGSMVYFKVGNETRKYKMTSIRNVKPTAVEVLDEQKGKDKQLTLVTCDDYNFETGVWETRKIFVATEVK
# B14: 4S.6B (protein)
# chain: QAKPQIPKDKSKVAGYIEIPDADIKEPVYPGPATREQLDRGVSFVEENESLDDQNISISGHTAIDRPNYQFTNLPAAKKGSMVYFKVGNETRKYKMTSIRNVKPTAVEVLDEQKGKDKQLTLVTCDDYNPETGVWETRKIFVATEVK
# B15: eSrtA(4S-9) T118A (protein)
# chain: QAKPQIPKDKSKVAGYIEIPDADIKEPVYPGPATREQLDRGVCFVEENESLDDQNISIAGHTAIDRPNYQFTNLRAAKKGSMVYLKVGNETRKYKMTSIRNVKPTAVEVLDEQKGKDKQLTLVTCDDYNFETGVWETRKIFVATEVK
# B16: eSrtA(4S-9) V104A (protein)
# chain: QAKPQIPKDKSKVAGYIEIPDADIKEPVYPGPATREQLDRGVCFAEENESLDDQNISITGHTAIDRPNYQFTNLRAAKKGSMVYLKVGNETRKYKMTSIRNVKPTAVEVLDEQKGKDKQLTLVTCDDYNFETGVWETRKIFVATEVK
# B17: eSrtA(2A-3) (protein)
# chain: QAKPQIPKDKSKVAGYIEIPDADIREPVYPGPATREQLNRGVSFAEENESLDDQNISIAGHTSIGRPNYQFTNLRAAKKGSMVYFEVGNETRKYKMTSIRNVRPTAVEILDEQKGKDRQLTLFTCDDYNEETGVWETRKIFVATEVK
# B18: eSrtA(4S-3) (protein)
# chain: QAKPQIPKDKSKVAGYIEIPDADIKEPVYPGPATREQLSRGVSFTEENESLDDQNISITGHTSIGRPNYQFTNLRAAKKGSMVYFKVGNETRKYKMTSIRNVKPTAVEVLDEQEGKDEQLTLVTCDDYNEETGVWETRKIFVATEVK
# Tests used:
# [1] = biological target: T1, Abz-LPETGK(Dnp)-CONH2
# [2] = biological target: T2, Abz-LAETGK(Dnp)-CONH2
# [3] = biological target: T3, Gly-Gly-Gly-COOH
# [4] = biological target: T4, Abz-LPESGK(Dnp)-CONH2
protein,measurement,setting,value
B1,preference for LPETG over LAETG (kcat/Km),[1],resulting in a 60-fold preference for LPETG (SEQ ID NO: 4) over LAETG (SEQ ID NO: 5)
B2,preference for LAETG over LPETG (kcat/Km),[2],"lowers the activity level for LAETG (SEQ ID NO: 5), but maintains an 85-fold preference for LAETG (SEQ ID NO: 5) over LPETG (SEQ ID NO: 4)"
B3,Km,[1],7.6 mM
same,"Km, LxExG",[1],5180 µM
same,kcat/Km,[1],200 M⁻¹ s⁻¹
same,kcat/Km (Hz/M),[1],236 Hz/M
same,"Km, GGG (uM); with LPETG peptide",[3],291 µM
same,"Km,GGG (µM); listed substrate LPETG",[3],211 µM
B4,Avg KM,[1],3400 µM
same,Avg kcat/KM,[1],47.7
same,"Km, LxExG",[1],3290 µM
same,kcat/Km (Hz/M),[1],47.8 Hz/M
same,Avg KM (uM) for GGG; with LAETG (2A) peptide,[3],1110 µM
same,Avg kcat/KM for GGG; with LAETG (2A) peptide,[3],1610
same,"Km, GGG (uM); with LAETG peptide",[3],1040 µM
same,Avg KM,[2],665 µM
same,Avg kcat/KM,[2],3930
same,"Km, LxExG",[2],608 µM
same,"Specificity (relative catalytic efficiency, fold), LAETG over LPETG",[2],82.4 fold
same,kcat/Km (Hz/M),[2],4130 Hz/M
same,"specificity (relative cat. Efficiency, fold), LAETG over LPETG",[2],86.4 fold
B5,Avg KM,[1],5180 µM
same,Avg kcat/KM,[1],9.69
same,"Km, LxExG",[1],11700 µM
same,kcat/Km (Hz/M),[1],8.01 Hz/M
same,Avg KM,[2],3720 µM
same,Avg kcat/KM,[2],534
same,"Km, LxExG",[2],3250 µM
same,"Specificity (relative catalytic efficiency, fold), LAETG over LPETG",[2],55.1 fold
same,"increase in kcat/Km, LAETG substrate against LPETG substrate",[2],from ˜40-fold (2Ar4) to ˜125-fold (2Ar5) increase in kcat/Km
same,kcat/Km (Hz/M),[2],585 Hz/M
same,"specificity (relative cat. Efficiency, fold), LAETG over LPETG",[2],73 fold
B6,"Km, LxExG",[1],4900 µM
same,kcat/Km (Hz/M),[1],28.1 Hz/M
same,"Km, GGG (uM); with LAETG peptide",[3],2810 µM
same,"Km, LxExG",[2],433 µM
same,"increase in kcat/Km, LAETG substrate against LPETG substrate",[2],from ˜40-fold (2Ar4) to ˜125-fold (2Ar5) increase in kcat/Km
same,increased affinity for the LAETG substrate as compared to the LPETG substrate,[2],from ˜61 (2A.6c) to ˜116fold (2Ar5)
same,kcat/Km (Hz/M),[2],3260 Hz/M
same,"specificity (relative cat. Efficiency, fold), LAETG over LPETG",[2],116 fold
B7,"Km, GGG (uM); with LAETG peptide",[3],642 µM
same,"Km, LxExG",[2],310 µM
same,kcat/Km (Hz/M),[2],2270 Hz/M
B8,Avg KM,[1],491 µM
same,Avg kcat/KM,[1],219
same,"Km, LxExG",[1],339 µM
same,kcat/Km (Hz/M),[1],283 Hz/M
same,Avg KM,[4],1560 µM
same,Avg kcat/KM,[4],487
same,"Km, LxExG",[4],1410 µM
same,"Specificity, LPESG over LPETG",[4],2.22 fold
same,kcat/Km (Hz/M),[4],517 Hz/M
same,"specificity (relative cat. Efficiency, fold), LPESG over LPETG",[4],1.82 fold
B9,Avg KM,[1],39300 µM
same,Avg kcat/KM,[1],133
same,Avg KM,[4],38800 µM
same,Avg kcat/KM,[4],193
same,"Km, LxExG",[4],7310 µM
same,"Specificity, LPESG over LPETG",[4],1.45 fold
same,kcat/Km (Hz/M),[4],154 Hz/M
B10,Avg KM,[1],11.7 µM
same,Avg kcat/KM,[1],530
same,"Km, LxExG",[1],12.2 µM
same,kcat/Km (Hz/M),[1],513 Hz/M
same,"Km,GGG (uM); with LPESG peptide",[3],26700 µM
same,Avg KM,[4],76 µM
same,Avg kcat/KM,[4],5130
same,"Km, LxExG",[4],76 µM
same,"Specificity, LPESG over LPETG",[4],9.67 fold
same,"increase in kcat/Km, LPESG substrate against LPETG substrate",[4],from ˜2-fold (4Sr5) to ˜5-fold (4Sr6a) increase in kcat/Km
same,increased affinity for the LPESG substrate as compared to the LPETG substrate,[4],from ˜2-fold (4Sr6b) to ˜8-fold (4Sr5)
same,kcat/Km (Hz/M),[4],5130 Hz/M
same,"specificity (relative cat. Efficiency, fold), LPESG over LPETG",[4],10 fold
B11,Avg KM,[1],1040 µM
same,Avg kcat/KM,[1],930
same,"Km, LxExG",[1],1290 µM
same,kcat/Km (Hz/M),[1],854 Hz/M
same,Avg KM (uM) for GGG; with LPESG (4S) peptide,[3],13100 µM
same,Avg kcat/KM for GGG; with LPESG (4S) peptide,[3],153
same,"Km,GGG (uM); with LPESG peptide",[3],4950 µM
same,Avg KM,[4],125 µM
same,Avg kcat/KM,[4],7530
same,"Km, LxExG",[4],102 µM
same,"Specificity, LPESG over LPETG",[4],8.09 fold
same,"increase in kcat/Km, LPESG substrate against LPETG substrate",[4],from ˜2-fold (4Sr5) to ˜5-fold (4Sr6a) increase in kcat/Km
same,kcat/Km (Hz/M),[4],9390 Hz/M
same,"specificity (relative cat. Efficiency, fold), LPESG over LPETG",[4],11 fold
B12,activity and selectivity on LPESG and LPETG (kcat/Km),[4],Reversion of V182 in eSrtA(4S-9) preserved selectivity but decreased overall activity
B13,"Km, LxExG",[1],16.1 µM
same,kcat/Km (Hz/M),[1],235 Hz/M
same,"Km,GGG (uM); with LPESG peptide",[3],36000 µM
same,"Km, LxExG",[4],156 µM
same,kcat/Km (Hz/M),[4],4350 Hz/M
same,"specificity (relative cat. Efficiency, fold), LPESG over LPETG",[4],18.5 fold
B14,"Km, LxExG",[1],238 µM
same,kcat/Km (Hz/M),[1],4550 Hz/M
same,"Km,GGG (uM); with LPESG peptide",[3],15700 µM
same,"Km, LxExG",[4],312 µM
same,increased affinity for the LPESG substrate as compared to the LPETG substrate,[4],from ˜2-fold (4Sr6b) to ˜8-fold (4Sr5)
same,kcat/Km (Hz/M),[4],4140 Hz/M
same,"specificity (relative cat. Efficiency, fold), LPESG over LPETG",[4],0.91 fold
B15,lowering of specificity for LPESG over LPETG against eSrtA(4S-9),[4],by 75-fold for the T118A mutant
B16,lowering of specificity for LPESG over LPETG against eSrtA(4S-9),[4],lowering specificity for LPESG (SEQ ID NO: 3) over LPETG (SEQ ID NO: 4) by 14-fold for the V104A mutant
B17,Avg KM,[1],2100 µM
same,Avg kcat/KM,[1],1270
same,"Specificity (relative catalytic efficiency, fold), LPETG over LAETG",[1],1.44 fold
same,Avg KM,[2],1620 µM
same,Avg kcat/KM,[2],881
B18,Avg KM,[1],3390 µM
same,Avg kcat/KM,[1],3.12
same,Avg KM,[4],3330 µM
same,Avg kcat/KM,[4],763
same,"Specificity, LPESG over LPETG",[4],245 fold
